In article PMC4991664:

Biological target: Atad2-tag (endogenous mouse Atad2 with a C-terminal 6xHis-Flag-Ha TAP tag, knock-in) (mouse (endogenous in 46C ES cells)) (UniProt Q8CDM1)
Test: co-IP; anti-Flag immunoprecipitation of protein extracts of 46C^tag and parental 46C ES cells; western blot with anti-H4 and anti-acetylated H4, compared with dilutions of the input

Sequence of UniProt Q8CDM1 (Q8CDM1 whole entry): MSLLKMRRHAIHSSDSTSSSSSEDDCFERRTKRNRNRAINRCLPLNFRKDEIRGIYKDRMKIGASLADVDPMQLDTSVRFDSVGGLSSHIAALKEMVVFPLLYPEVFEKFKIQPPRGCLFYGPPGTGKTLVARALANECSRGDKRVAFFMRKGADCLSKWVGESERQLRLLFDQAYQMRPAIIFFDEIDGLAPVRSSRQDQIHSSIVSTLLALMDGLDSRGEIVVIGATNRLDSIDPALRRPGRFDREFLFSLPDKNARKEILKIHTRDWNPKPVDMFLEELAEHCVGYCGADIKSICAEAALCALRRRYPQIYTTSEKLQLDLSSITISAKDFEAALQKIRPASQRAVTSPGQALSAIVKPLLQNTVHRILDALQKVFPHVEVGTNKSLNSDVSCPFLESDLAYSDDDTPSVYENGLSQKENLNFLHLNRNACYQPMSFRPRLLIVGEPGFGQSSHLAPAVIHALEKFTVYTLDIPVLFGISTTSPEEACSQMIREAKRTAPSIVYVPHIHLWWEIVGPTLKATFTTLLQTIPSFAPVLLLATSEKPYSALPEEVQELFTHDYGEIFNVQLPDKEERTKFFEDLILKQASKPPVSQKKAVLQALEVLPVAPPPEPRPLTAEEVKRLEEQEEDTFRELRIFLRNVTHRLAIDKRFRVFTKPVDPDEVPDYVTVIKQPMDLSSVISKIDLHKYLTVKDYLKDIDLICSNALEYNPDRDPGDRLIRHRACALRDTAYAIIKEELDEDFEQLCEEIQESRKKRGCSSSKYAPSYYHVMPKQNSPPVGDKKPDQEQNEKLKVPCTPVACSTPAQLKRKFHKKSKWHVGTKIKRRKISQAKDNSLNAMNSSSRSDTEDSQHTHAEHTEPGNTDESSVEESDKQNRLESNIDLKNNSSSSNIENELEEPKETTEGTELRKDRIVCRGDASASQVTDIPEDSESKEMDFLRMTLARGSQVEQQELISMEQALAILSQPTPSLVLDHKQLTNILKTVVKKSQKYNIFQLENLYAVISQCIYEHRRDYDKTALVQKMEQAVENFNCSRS

fraction of the input immunoprecipitated (fraction of the input)	Substance
0.02	acetylated histone H4 (from UniProt P62806 1-103) (natural protein)
0.01	histone H4 (from UniProt P62806 1-103) (natural protein)
